Experimental data published in IntAct's records for PubMed 31515488.

B1: Testis-specific protein 10-interacting protein (Homo sapiens), Q3SY00 (parent)
chain: MGQDTDMLNTYQQLVRTPSVRPGQDVRLQAPGTRTGLLKLLSTVSQDKQGCLGSGDGVPNQDLQQRSQSSRQTAKKDRKPRGQSKKGQGSEESEDHFPLLPRKPSFPFQWAWESIATDVRAVLQPSSPTPGHQALPMPSSFSQRQSRRKSTANLPEAHGCCWKTEAQNLKARQQLGAWGGVSIPTGKGELGSEPPSGLQLPGRRPGSGSASDKQVQLQSLGAEEAERGLSSGVLPQRPRRGSISEEEQFSEATEEAEEGEHRTPCRRRAGCQRKGQISGEEASDEGEVQGQSQGSSPSFNNLRRRQWRKTRAKELQGPWDLEKLHRQLQRDLDCGPQKLPWKTLRAAFQASKRNGKAYASGYDETFVSANLPNRTFHKRQEATRSLLQAWERQRQEERQQAELRRARTQHVQRQVAHCLAAYAPRGSRGPGAAQRKLEELRRQERQRFAEYQAELQGIQHRVQARPFLFQQAMQANARLTVTRRFSQVLSALGLDEEQLLSEAGKVDREGTPRKPRSHRSMGVRMEHSPQRPPRTEPTGSQPDRHYNPSLDPECSP
B2: Pleckstrin homology domain-containing family N member 1 (Homo sapiens), Q494U1 (parent)
chain: MGNSHCVPQAPRRLRASFSRKPSLKGNREDSARMSAGLPGPEAARSGDAAANKLFHYIPGTDILDLENQRENLEQPFLSVFKKGRRRVPVRNLGKVVHYAKVQLRFQHSQDVSDCYLELFPAHLYFQAHGSEGLTFQGLLPLTELSVCPLEGSREHAFQITGPLPAPLLVLCPSRAELDRWLYHLEKQTALLGGPRRCHSAPPQRRLTRLRTASGHEPGGSAVCASRVKLQHLPAQEQWDRLLVLYPTSLAIFSEELDGLCFKGELPLRAVHINLEEKEKQIRSFLIEGPLINTIRVVCASYEDYGHWLLCLRAVTHREGAPPLPGAESFPGSQVMGSGRGSLSSGGQTSWDSGCLAPPSTRTSHSLPESSVPSTVGCSSQHTPDQANSDRASIGRRRTELRRSGSSRSPGSKARAEGRGPVTPLHLDLTQLHRLSLESSPDAPDHTSETSHSPLYADPYTPPATSHRRVTDVRGLEEFLSAMQSARGPTPSSPLPSVPVSVPASDPRSCSSGPAGPYLLSKKGALQSRAAQRHRGSAKDGGPQPPDAPQLVSSAREGSPEPWLPLTDGRSPRRSRDPGYDHLWDETLSSSHQKCPQLGGPEASGGLVQWI
partner: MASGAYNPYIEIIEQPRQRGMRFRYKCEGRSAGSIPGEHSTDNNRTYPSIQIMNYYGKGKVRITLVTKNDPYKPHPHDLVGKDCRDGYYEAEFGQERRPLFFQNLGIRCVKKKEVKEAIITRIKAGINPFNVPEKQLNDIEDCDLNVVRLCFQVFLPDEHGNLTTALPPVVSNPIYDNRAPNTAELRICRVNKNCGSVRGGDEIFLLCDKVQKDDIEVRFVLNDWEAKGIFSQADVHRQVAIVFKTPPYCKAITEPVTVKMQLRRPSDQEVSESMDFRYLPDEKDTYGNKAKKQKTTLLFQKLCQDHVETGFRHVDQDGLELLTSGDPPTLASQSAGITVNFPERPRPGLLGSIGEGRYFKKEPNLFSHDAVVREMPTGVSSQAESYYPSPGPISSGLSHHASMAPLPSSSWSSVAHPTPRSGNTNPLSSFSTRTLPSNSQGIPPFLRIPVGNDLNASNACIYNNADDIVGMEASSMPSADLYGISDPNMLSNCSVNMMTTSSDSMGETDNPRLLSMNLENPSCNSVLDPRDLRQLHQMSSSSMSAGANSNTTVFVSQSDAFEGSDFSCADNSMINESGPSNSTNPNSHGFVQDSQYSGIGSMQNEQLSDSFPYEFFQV
B3: Syntenin-2 (Homo sapiens), Q9H190 (parent)
chain: MSSLYPSLEDLKVDQAIQAQVRASPKMPALPVQATAISPPPVLYPNLAELENYMGLSLSSQEVQESLLQIPEGDSTAVSGPGPGQMVAPVTGYSLGVRRAEIKPGVREIHLCKDERGKTGLRLRKVDQGLFVQLVQANTPASLVGLRFGDQLLQIDGRDCAGWSSHKAHQVVKKASGDKIVVVVRDRPFQRTVTMHKDSMGHVGFVIKKGKIVSLVKGSSAARNGLLTNHYVCEVDGQNVIGLKDKKIMEILATAGNVVTLTIIPSVIYEHMVKKLPPVLLHHTMDHSIPDA

Variants of: B1
Details: with mtus2_human MTUS2, Q5JR59
Chain of mtus2_human MTUS2, Q5JR59 (Q5JR59 whole entry): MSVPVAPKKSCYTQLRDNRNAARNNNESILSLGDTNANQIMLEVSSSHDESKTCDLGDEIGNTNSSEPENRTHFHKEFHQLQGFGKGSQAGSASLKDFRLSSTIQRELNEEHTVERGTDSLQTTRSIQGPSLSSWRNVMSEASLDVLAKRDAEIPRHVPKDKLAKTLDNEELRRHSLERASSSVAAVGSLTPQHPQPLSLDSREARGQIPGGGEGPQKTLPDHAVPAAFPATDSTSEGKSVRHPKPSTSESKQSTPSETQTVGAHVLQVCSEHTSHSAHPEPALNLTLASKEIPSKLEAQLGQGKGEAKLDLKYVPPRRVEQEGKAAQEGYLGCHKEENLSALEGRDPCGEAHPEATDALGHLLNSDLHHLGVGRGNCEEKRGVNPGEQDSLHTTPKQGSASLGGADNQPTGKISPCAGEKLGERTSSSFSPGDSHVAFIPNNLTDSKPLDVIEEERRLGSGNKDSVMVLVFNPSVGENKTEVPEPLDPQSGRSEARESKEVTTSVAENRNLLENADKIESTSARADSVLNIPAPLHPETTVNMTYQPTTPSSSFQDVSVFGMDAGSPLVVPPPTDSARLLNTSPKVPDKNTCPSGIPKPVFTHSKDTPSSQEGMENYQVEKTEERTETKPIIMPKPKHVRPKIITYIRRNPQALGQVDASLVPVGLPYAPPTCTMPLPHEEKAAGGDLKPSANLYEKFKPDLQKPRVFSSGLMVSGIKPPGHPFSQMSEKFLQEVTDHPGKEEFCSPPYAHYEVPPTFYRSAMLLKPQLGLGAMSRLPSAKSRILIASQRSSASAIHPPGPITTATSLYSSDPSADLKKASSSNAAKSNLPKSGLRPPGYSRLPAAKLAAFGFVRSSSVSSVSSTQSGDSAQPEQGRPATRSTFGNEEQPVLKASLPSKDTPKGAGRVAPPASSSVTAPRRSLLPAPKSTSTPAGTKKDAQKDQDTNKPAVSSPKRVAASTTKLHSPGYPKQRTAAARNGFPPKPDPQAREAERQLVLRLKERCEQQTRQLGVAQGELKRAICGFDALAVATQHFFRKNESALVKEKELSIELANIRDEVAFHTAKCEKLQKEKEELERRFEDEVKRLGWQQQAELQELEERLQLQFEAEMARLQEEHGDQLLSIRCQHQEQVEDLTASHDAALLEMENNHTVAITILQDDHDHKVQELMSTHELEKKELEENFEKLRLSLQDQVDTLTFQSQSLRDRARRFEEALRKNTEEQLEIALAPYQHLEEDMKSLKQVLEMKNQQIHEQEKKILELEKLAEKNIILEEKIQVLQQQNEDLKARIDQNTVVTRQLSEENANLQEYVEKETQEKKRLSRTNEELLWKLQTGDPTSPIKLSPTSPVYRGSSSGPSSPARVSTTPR

effect of a mutation on the interaction	Variant
with no effect	R305P

Variants of: B2
Details: with rel_human REL

effect of a mutation on the interaction	Variant
with no effect	R487P

Variants of: B3
Details: with zch10_human ZCCHC10, Q8TBK6
Chain of zch10_human ZCCHC10, Q8TBK6 (Q8TBK6 whole entry): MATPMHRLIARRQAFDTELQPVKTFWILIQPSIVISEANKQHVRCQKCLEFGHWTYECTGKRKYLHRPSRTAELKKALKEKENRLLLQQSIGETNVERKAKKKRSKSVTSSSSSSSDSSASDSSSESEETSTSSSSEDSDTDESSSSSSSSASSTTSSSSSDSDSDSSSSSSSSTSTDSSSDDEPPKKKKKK

effect of a mutation on the interaction	Variant
disrupting interaction strength	MSSLYPSLEDLKVDQAIQAQVRASPKMPALPVQATAISPPPVLYPNLAELENYMGLSLSSQEVQESLLQIPEGDSTAVSGPGPGQMVAPVTGYSLGVRRAEIKPGVREIHLCKDERGKTGLRLRKVDQGLFVQLVQANTPASLVGLRFGDQLLQIDGRDCAGWSSHKAHQVVKKASGDKIVVVVRDRPFQRTVTMHKDSMGHVGFVIKKGKIVSLVKGSSAARNRLLTNHYVCEVDGQNVIGLKDKKIMEILATAGNVVTLTIIPSVIYEHMVKKLPPVLLHHTMDHSIPDA [G225R]

Variants of: B3
Details: with t23o_human TDO2, P48775
Chain of t23o_human TDO2, P48775 (P48775 whole entry, looked up): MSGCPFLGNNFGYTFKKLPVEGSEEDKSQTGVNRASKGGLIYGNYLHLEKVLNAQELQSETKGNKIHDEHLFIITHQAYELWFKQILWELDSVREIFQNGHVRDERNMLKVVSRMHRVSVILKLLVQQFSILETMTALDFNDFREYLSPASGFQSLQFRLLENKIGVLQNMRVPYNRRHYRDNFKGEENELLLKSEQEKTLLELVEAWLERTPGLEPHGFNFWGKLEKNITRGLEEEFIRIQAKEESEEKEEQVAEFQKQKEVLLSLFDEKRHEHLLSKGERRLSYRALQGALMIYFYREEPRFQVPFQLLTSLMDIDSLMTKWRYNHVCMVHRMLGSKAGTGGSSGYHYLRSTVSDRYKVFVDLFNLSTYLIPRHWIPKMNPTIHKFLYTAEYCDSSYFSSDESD

effect of a mutation on the interaction	Variant
disrupting interaction strength	MSSLYPSLEDLKVDQAIQAQVRASPKMPALPVQATAISPPPVLYPNLAELENYMGLSLSSQEVQESLLQIPEGDSTAVSGPGPGQMVAPVTGYSLGVRRAEIKPGVREIHLCKDERGKTGLRLRKVDQGLFVQLVQANTPASLVGLRFGDQLLQIDGRDCAGWSSHKAHQVVKKASGDKIVVVVRDRPFQRTVTMHKDSMGHVGFVIKKGKIVSLVKGSSAARNRLLTNHYVCEVDGQNVIGLKDKKIMEILATAGNVVTLTIIPSVIYEHMVKKLPPVLLHHTMDHSIPDA [G225R]

Variants of: B3
Details: with lyar_human LYAR

effect of a mutation on the interaction	Variant
disrupting interaction strength	MSSLYPSLEDLKVDQAIQAQVRASPKMPALPVQATAISPPPVLYPNLAELENYMGLSLSSQEVQESLLQIPEGDSTAVSGPGPGQMVAPVTGYSLGVRRAEIKPGVREIHLCKDERGKTGLRLRKVDQGLFVQLVQANTPASLVGLRFGDQLLQIDGRDCAGWSSHKAHQVVKKASGDKIVVVVRDRPFQRTVTMHKDSMGHVGFVIKKGKIVSLVKGSSAARNRLLTNHYVCEVDGQNVIGLKDKKIMEILATAGNVVTLTIIPSVIYEHMVKKLPPVLLHHTMDHSIPDA [G225R]

Variants of: B3
Details: with ytdc1_human YTHDC1, Q96MU7

effect of a mutation on the interaction	Variant
disrupting interaction strength	MSSLYPSLEDLKVDQAIQAQVRASPKMPALPVQATAISPPPVLYPNLAELENYMGLSLSSQEVQESLLQIPEGDSTAVSGPGPGQMVAPVTGYSLGVRRAEIKPGVREIHLCKDERGKTGLRLRKVDQGLFVQLVQANTPASLVGLRFGDQLLQIDGRDCAGWSSHKAHQVVKKASGDKIVVVVRDRPFQRTVTMHKDSMGHVGFVIKKGKIVSLVKGSSAARNRLLTNHYVCEVDGQNVIGLKDKKIMEILATAGNVVTLTIIPSVIYEHMVKKLPPVLLHHTMDHSIPDA [G225R]

Variants of: B3
Details: with FAM133A

effect of a mutation on the interaction	Variant
disrupting interaction strength	MSSLYPSLEDLKVDQAIQAQVRASPKMPALPVQATAISPPPVLYPNLAELENYMGLSLSSQEVQESLLQIPEGDSTAVSGPGPGQMVAPVTGYSLGVRRAEIKPGVREIHLCKDERGKTGLRLRKVDQGLFVQLVQANTPASLVGLRFGDQLLQIDGRDCAGWSSHKAHQVVKKASGDKIVVVVRDRPFQRTVTMHKDSMGHVGFVIKKGKIVSLVKGSSAARNRLLTNHYVCEVDGQNVIGLKDKKIMEILATAGNVVTLTIIPSVIYEHMVKKLPPVLLHHTMDHSIPDA [G225R]
